# Source: article PMC3285688, “Active Site Mutations Change the Cleavage Specificity of Neprilysin” (PLoS ONE, 2012)
# Several values for one entry are separate records, joined by “and”; a condition that tells them apart may be missing. Equal entries are not always repeated. Entries after “also recorded” stand apart in the source; their conditions may differ.
# Experiments:
# Assay type in all cases: biochemical
# insulin B chain [1] = experiment: Dual substrate assay: insulin B chain hydrolysis in presence of leu-ENK; conditions: 15 µM insulin B chain and 64 µM leu-ENK together, 37°C, 20 mM MES buffer, pH 6.5
# Experimental: (§1) The rate of cleavage of a substrate mixture is determined by both the kcat for that substrate as well by the affinity for the substrate. […] This is expected, given that each peptide acts as a competitive inhibitor of the other. […] That is the ratio for leu-ENK/insulin B chain cleavage is 3 for NEP^S546E compared to 6 for wild-type NEP.
# (§2) Cleavage of physiological peptides was measured via reverse phase high performance liquid chromatography (HPLC) following incubation of the purified NEP or its mutants with 15 µM insulin B chain (Sigma Aldrich), 24 µM Aß1–40 (Anaspec), or 64 µM leu-ENK (Sigma) in 100 µL of 20 mM MES, pH 6.5, at 37°C. Reactions were run in triplicate. HPLC was carried out in a Vydac C4 column using a linear gradient from 0.1% trifluoroacetic acid (TFA) in 95% water, 5% acetonitrile to 0.1% TFA in 50% acetonitrile/water at a flow rate of 1 mL/min. Peptides and hydrolysis products were detected at 214 nm and quantified by measuring peak areas. Peptides obtained from HPLC were analyzed on an Applied Biosystems 4800 MALDI TOF/TOF Proteomics Analyzer at the University of Kentucky Proteomics core. This facility is supported in part by grant P20RR020171 from the NIH/NCRR.
# insulin B chain [2] = experiment: Rate of insulin B chain hydrolysis (HPLC)
# Experimental: as §2
# (§3) Statistical analysis comparing wild-type NEP and its mutants was performed with Prism 4 software using a two-tailed paired t-test with a 95% confidence interval.
# [3] = Hydrolysis of synthetic substrate Glut-Ala-Ala-Phe-MNA by NEP and mutants (fluorogenic)
# Experimental: Reactions of 400 µl contained 100 µM Glut-Ala-Ala-Phe-MNA, 1 µg of aminopeptidase and 15 to 100 ng of NEP or mutant NEP depending on their activity in 20 mM MES buffer, pH 6.5. Activity was monitored with a Spectra Max Gemini XS plate reader using an excitation wavelength of 340 nm and an emission wavelength of 425 nm.
# (§4) Kinetic constants for NEP and its mutants were obtained using the assay conditions noted above, but with Glut-Ala-Ala-Phe-MNA varied from 20 to 500 µM. Typically 12 data points were obtained. The data were fit to the Michaelis-Menten equation using Prism4 software. The Ki for insulin B chain was obtained by measuring the rate of Glut-Ala-Ala-Phe-MNA hydrolysis in the presence of varying concentrations of insulin B chain from 1 to 40 µM. Data were fit to a Dixon plot (1/rate versus [insulin B chain]) using Prism4 software and the ID50 obtained as the –x intercept, where ID50 corresponds to the concentration of insulin producing 50% inhibition. The actual Ki was obtained from the equation: ID50 = Ki (1+ [Glut-Ala-Ala-Phe-MNA]/KmGlut-Ala-Ala-Phe-MNA), [33].
# leu-ENK [4] = experiment: Dual substrate assay: leu-ENK hydrolysis in presence of insulin B chain; conditions: 15 µM insulin B chain and 64 µM leu-ENK together, 37°C, 20 mM MES buffer, pH 6.5
# Experimental: as §1, §2
# Aß1–40 [5] = experiment: Time course of product peak accumulation from Aß1–40
# Experimental: Similar to the analysis conducted with insulin B chain, the linear rate of product accumulation was determined for each peak and normalized to the amount of protein in the reaction, Table 7 . Unlike the hydrolysis of insulin B chain, the hydrolysis of Aß1–40, even at the earliest time points, produced products resulting from multiple cleavage events. Out of the 12 identified product peaks, only 3 could be produced by a single cleavage. Rates for all cleavages were calculated and are given in Figure 4, B–D , but only the three putative primary cleavage sites can be compared.
# as §2
# insulin B chain [6] = experiment: Insulin B chain as alternate substrate (competitive) inhibitor of Glut-Ala-Ala-Phe-MNA hydrolysis (Dixon plot); conditions: insulin B chain 1 to 40 µM as competitive inhibitor of Glut-Ala-Ala-Phe-MNA hydrolysis by the enzyme form, 37°C, 20 mM MES, pH 6.5, ID50 converted to Ki
# Experimental: as §4
# Aß1–40 [7] = experiment: Rate of Aß1–40 hydrolysis (HPLC)
# Experimental: as §2, §3
# [8] = tested on: leu-ENK and insulin B chain; experiment: Dual substrate assay: substrate preference leu-ENK versus insulin B chain
# Experimental: as §1, §2
# leu-ENK [9] = experiment: Rate of leu-ENK hydrolysis (HPLC)
# Experimental: as §2, §3
# insulin B chain [10] = experiment: Time course of product peak accumulation from insulin B chain
# Excerpt: As a representative of the NEP^F563 and NEP^S546 mutants, we compared the cleavage profile of NEP^F563L and NEP^S546E to that of NEP using time course experiments, Figure 2 . By adjusting the amount of NEP mutant used, the rate of hydrolysis of insulin B chain by all NEP forms was virtually identical. […] Since rates were based on peak areas measured at 214 nm, which in turn is dependent on both the number of peptide bonds and the number of aromatic residues within a given peptide, only the observed rates of change for a particular peptide product can be compared between enzyme forms. A comparison of the rate of change of different peaks within the same enzyme form or between enzyme forms is not valid under our conditions of analysis.
# as §2
# [11] = 24 µM Aß1–40, 37°C, 20 mM MES, pH 6.5, 0-360 min, HPLC peak area, linear phase
# [12] = 15 µM insulin B chain, 37°C, 20 mM MES, pH 6.5, 0-180 min, HPLC peak area 214 nm, linear phase
molecule,measurement,setting,value
"NEP^F563L: neprilysin active site mutant, Phe563 to leucine (protein, UniProt P08473 2-750, looked up, variant F563L) Neprilysin: GKSESQMDITDINTPKPKKKQRWTPLEISLSVLVLLLTIIAVTMIALYATYDDGICKSSDCIKSAARLIQNMDATTEPCTDFFKYACGGWLKRNVIPETSSRYGNFDILRDELEVVLKDVLQEPKTEDIVAVQKAKALYRSCINESAIDSRGGEPLLKLLPDIYGWPVATENWEQKYGASWTAEKAIAQLNSKYGKKVLINLFVGTDDKNSVNHVIHIDQPRLGLPSRDYYECTGIYKEACTAYVDFMISVARLIRQEERLPIDENQLALEMNKVMELEKEIANATAKPEDRNDPMLLYNKMTLAQIQNNFSLEINGKPFSWLNFTNEIMSTVNISITNEEDVVVYAPEYLTKLKPILTKYSARDLQNLMSWRFIMDLVSSLSRTYKESRNAFRKALYGTTSETATWRRCANYVNGNMENAVGRLYVEAAFAGESKHVVEDLIAQIREVFIQTLDDLTWMDAETKKRAEEKALAIKERIGYPDDIVSNDNKLNNEYLELNYKEDEYFENIIQNLKFSQSKQLKKLREKVDKDEWISGAAVVNAFYSSGRNQIVFPAGILQPPLFSAQQSNSLNYGGIGMVIGHEITHGFDDNGRNFNKDGDLVDWWTQQSASNFKEQSQCMVYQYGNFSWDLAGGQHLNGINTLGENIADNGGLGQAYRAYQNYIKKNGEEKLLPGLDLNHKQLFFLNFAQVWCGTYRPEYAVNSIKTDVHSPGNFRIIGTLQNSAEFSEAFHCRKNSYMNPEKKCRVW","Insulin B Chain hydrolysis rate, dual substrate assay",insulin B chain [1],0.19 ± 0.03 pmol/min/ng
same,Rate of hydrolysis of Insulin B Chain,"insulin B chain [2]; 15 µM insulin B chain, 37°C, 20 mM MES buffer, pH 6.5, disappearance of substrate by HPLC, at least triplicate",1.17 ± 0.18 pmol/min/ng
same,Insulin B chain hydrolysis rate relative to NEP,"insulin B chain [2]; overall rate, 15 µM insulin B chain",1.4 times
same,Preference for insulin B chain over Aß1–40,"insulin B chain [2]; relative to NEP, from separate single-substrate rates",greater than 2 fold
same,"Activity relative to wild-type enzyme (Figure S2 legend, in words)",[3],same activity as wild-type enzyme
same,Specific Activity (Glut-Ala-Ala-Phe-MNA cleavage),"[3]; 100 µM Glut-Ala-Ala-Phe-MNA, 37°C, 20 mM MES buffer, pH 6.5, fluorescence ex 340 nm, em 425 nm",44 pmol/min/ng and 43.6 ± 0.1 pmol/min/ng
same,Km,"[3]; Glut-Ala-Ala-Phe-MNA 20 to 500 µM, 37°C, 20 mM MES buffer, pH 6.5, Michaelis-Menten fit",81 ± 11 µM
same,"leu-ENK hydrolysis rate, dual substrate assay",leu-ENK [4],0.97 ± 0.06 pmol/min/ng
same,"leu-ENK hydrolysis, activity relative to the uninhibited value",leu-ENK [4]; numbers in parenthesis,0.62
same,Accumulation rate of peak Aß 1–9 (single cleavage G^9-Y^10),Aß1–40 [5]; [11],0 Δarea/min/ng
same,Accumulation rate of peak Aß 1–16 (single cleavage K^16-L^17),Aß1–40 [5]; [11],17 Δarea/min/ng
same,Accumulation rate of peak Aß 1–17 (single cleavage L^17-V^18),Aß1–40 [5]; [11],22 Δarea/min/ng
same,"Accumulation rate of peak Aß 4–9 (dual cleavages A^3-F^4, G^9-Y^10)",Aß1–40 [5]; [11],5 Δarea/min/ng
same,"Accumulation rate of peak Aß 4–16 (dual cleavages A^3-F^4, K^16-L^17)",Aß1–40 [5]; [11],5 Δarea/min/ng
same,"Accumulation rate of peak Aß 4–17 (dual cleavages A^3-F^4, L^17-V^18)",Aß1–40 [5]; [11],12 Δarea/min/ng
same,"Accumulation rate of peak Aß 10–16 (dual cleavages G^9-Y^10, K^16-L^17)",Aß1–40 [5]; [11],11 Δarea/min/ng
same,"Accumulation rate of peak Aß 10–17 (dual cleavages G^9-Y^10, L^17-V^18)",Aß1–40 [5]; [11],8 Δarea/min/ng
same,"Accumulation rate of peak Aß 12–17 (dual cleavages E^11-V^12, L^17-V^18)",Aß1–40 [5]; [11],1 Δarea/min/ng
same,"Accumulation rate of peak Aß 20–28 (dual cleavages F^19-F^20, K^28-G^29)",Aß1–40 [5]; [11],5 Δarea/min/ng
same,"Accumulation rate of peak Aß 20–29 (dual cleavages F^19-F^20, G^29-A^30)",Aß1–40 [5]; [11],6 Δarea/min/ng
same,"Accumulation rate of peak Aß 20–30 (dual cleavages F^19-F^20, A^30-I^31)",Aß1–40 [5]; [11],26 Δarea/min/ng
same,Presence of wild-type product peaks from Aß1–40 (in words),"Aß1–40 [5]; HPLC profile at ∼30% hydrolysis, Aß1–9 peak in case of NEP^F563L",the peak corresponding to Aß1–9 was not present
same,Cleavage at L^17-V^18 in Aß1–40 relative to wild-type NEP,Aß1–40 [5]; product Aß1–17,25%
same,Cleavage of the G^9-Y^10 bond in Aß1–40 (in words),"Aß1–40 [5]; versus NEP, inferred from Aß1–9, Aß10–17",much slower rate; also recorded: appears to cleave the G^9-Y^10 bond
same,Ki,insulin B chain [6],1.5 ± 0.3 µM
same,Rate of hydrolysis of Aß1–40,"Aß1–40 [7]; 24 µM Aß1–40, 37°C, 20 mM MES buffer, pH 6.5, disappearance of substrate by HPLC, at least triplicate",116 ± 4 fmol/min/ng
same,Aß1–40 hydrolysis rate relative to wild-type NEP,"Aß1–40 [7]; overall rate as fraction/times of wild-type rate, 24 µM Aß1–40",nearly half the rate of the wild-type enzyme
same,Substrate preference leu-ENK/insulin B chain (in words),"[8]; dual substrate assay, versus wild-type",no change in overall substrate preference
same,Ratio leu-ENK insulin B chain,"[8]; ratio of rates, 15 µM insulin B chain and 64 µM leu-ENK together",5.1
same,Rate of hydrolysis of leu-ENK,"leu-ENK [9]; 64 µM leu-ENK, 37°C, 20 mM MES buffer, pH 6.5, disappearance of substrate by HPLC, at least triplicate",1.57 ± 0.32 pmol/min/ng
same,leu-ENK cleavage rate relative to wild-type NEP rate,"leu-ENK [9]; 64 µM leu-ENK, pH 6.5, 37°C",approximately 80%
same,Activity for both Glut-Ala-Ala-Phe-MNA and leu-ENK (in words),leu-ENK [9]; versus wild-type,near wild-type levels of activity
same,Rate of accumulation of peak 1–5 (single cleavage H^5-L^6),insulin B chain [10]; [12],83 Δarea/min/ng
same,Rate of accumulation of peak 1–10 (single cleavage H^10-L^11),insulin B chain [10]; [12],135 Δarea/min/ng
same,Rate of accumulation of peak 1–11 (single cleavage L^11-V^12),insulin B chain [10]; [12],16 Δarea/min/ng
same,Rate of accumulation of peak 1–14 (single cleavage A^14-L^15),insulin B chain [10]; [12],266 Δarea/min/ng
same,Rate of accumulation of peak 1–16 (single cleavage Y^16-L^17),insulin B chain [10]; [12],25 Δarea/min/ng
same,"Rate of accumulation of peak 15–23 (two cleavages A^14-L^15, G^23-F^24)",insulin B chain [10]; [12],64 Δarea/min/ng
same,Rate of accumulation of peak 15–30 (single cleavage A^14-L^15),insulin B chain [10]; [12],282 Δarea/min/ng
same,"Rate of accumulation of peak 17–24 (two cleavages Y^16-L^17, F^24-F^25)",insulin B chain [10]; [12],25 Δarea/min/ng
same,Rate of accumulation of peak 17–30 (single cleavage Y^16-L^17),insulin B chain [10]; [12],112 Δarea/min/ng
same,Rate of accumulation of peak 24–30 (single cleavage G^23-F^24),insulin B chain [10]; [12],290 Δarea/min/ng
same,Unique or missing cleavage sites in insulin B chain versus NEP,"insulin B chain [10]; 30% substrate hydrolysis, HPLC profile",no unique or missing cleavage sites
same,Cleavage at A^14-L^15 in insulin B chain relative to NEP,insulin B chain [10]; times the NEP rate,~1.4
same,Cleavage at H^5-L^6 in insulin B chain relative to NEP,insulin B chain [10]; times the NEP rate,~1.4
same,Cleavage at H^10-L^11 in insulin B chain relative to NEP,insulin B chain [10]; times the NEP rate,0.8
same,Cleavage at L^11-V^12 in insulin B chain relative to NEP,insulin B chain [10]; times the NEP rate,0.2
same,Cleavage at Y^16-L^17 in insulin B chain relative to NEP,insulin B chain [10]; times the NEP rate,~0.7
